From the Immune Epitope Database (IEDB)

Legend:
[1] = target: HLA-B*40:01; assay: IEDB peptide-MHC binding, purified MHC/competitive/radioactivity; filed as Kd, often an IC50 or EC50 that approximates it; ≥ and ≤ were set here for values at or beyond the usual limits of such assays
[2] = target: HLA-B*44:03; assay: as above
[3] = target: HLA-B*40:02; assay: as above
[4] = target: HLA-B*45:01; assay: as above
[5] = target: HLA-B*18:01; assay: as above
[6] = target: HLA-B*44:02; assay: as above
[7] = target: HLA-A*01:01; assay: IEDB peptide-MHC binding, purified MHC/direct/fluorescence; filed as Kd, often an IC50 or EC50 that approximates it; ≥ and ≤ were set here for values at or beyond the usual limits of such assays
[8] = target: HLA-A*29:02; assay: as above
[9] = target: HLA-B*40:01; assay: as above; conditions: source organism: Yellow fever virus 17D
[10] = target: HLA-B*15:01; assay: as above; conditions: source organism: Yellow fever virus 17D
[11] = target: HLA-A*03:01; assay: as above; conditions: source organism: Yellow fever virus 17D
[12] = target: HLA-B*57:01; assay: as above; conditions: source organism: Yellow fever virus 17D
[13] = target: HLA-B*18:01; assay: as above; conditions: source organism: Yellow fever virus 17D
[14] = target: HLA-B*44:02; assay: as above; conditions: source organism: Yellow fever virus 17D
[15] = target: HLA-A*02:01; assay: as above; conditions: source organism: Yellow fever virus 17D
[16] = target: HLA-B*46:01; assay: as above; conditions: source organism: Yellow fever virus 17D
[17] = target: HLA-B*58:01; assay: as above; conditions: source organism: Yellow fever virus 17D
[18] = target: HLA-B*48:01; assay: as above; conditions: source organism: Yellow fever virus 17D
[19] = target: HLA-A*11:01; assay: as above; conditions: source organism: Yellow fever virus 17D
[20] = target: HLA-A*31:01; assay: as above; conditions: source organism: Yellow fever virus 17D
[21] = target: HLA-A*69:01; assay: as above; conditions: source organism: Yellow fever virus 17D
[22] = target: HLA-B*15:01; assay: IEDB peptide-MHC binding, purified MHC/competitive/fluorescence; filed as Kd, often an IC50 or EC50 that approximates it; ≥ and ≤ were set here for values at or beyond the usual limits of such assays; conditions: source organism: Salmonella enterica subsp. enterica serovar Typhi
[23] = target: HLA-A*02:01; assay: as above; conditions: source organism: Salmonella enterica subsp. enterica serovar Typhi
[24] = source organism: Mammarenavirus machupoense
[25] = source organism: SARS coronavirus Tor2
[26] = source organism: Yellow fever virus 17D
[27] = source organism: Mammarenavirus brazilense
[28] = source organism: Mammarenavirus lassaense

With SDNGILCPT the Kd [1, 24] was ≥ 68.2 µM, the Kd [2, 24] was ≥ 78.1 µM and the Kd [3, 24] was 1.33 µM. For the same sequence, the Kd [4, 24] was ≥ 77.7 µM, the Kd [5, 24] was ≥ 77.5 µM and the Kd [6, 24] was ≥ 27.8 µM.
FELCDNPFF was tested, and the Kd [1, 25] was 0.0351 µM, the Kd [2, 25] was 0.0582 µM and the Kd [3, 25] was 0.0956 µM. For the same sequence, the Kd [4, 25] was 17.7 µM, the Kd [5, 25] was 0.211 µM and the Kd [6, 25] was 0.0321 µM.
With PEIWLQLNT the Kd [1, 24] was ≥ 76.1 µM, the Kd [2, 24] was 2.35 µM and the Kd [3, 24] was 9.21 µM. The Kd [4, 24] was ≥ 21.1 µM, the Kd [5, 24] was ≥ 77.5 µM and the Kd [6, 24] was 14.4 µM.
RECYVQRFYL gave a Kd [1, 24] of 9.01 µM, a Kd [2, 24] of 1.1 µM and a Kd [3, 24] of 0.0053 µM. It also gave a Kd [4, 24] of 1.56 µM, a Kd [5, 24] of 0.518 µM and a Kd [6, 24] of 1.64 µM.
Sequence GEENFSSRMY has a Kd [1, 25] of 8.44 µM, a Kd [2, 25] of 0.0683 µM and a Kd [3, 25] of 14.2 µM. It also gave a Kd [4, 25] of 3.21 µM, a Kd [5, 25] of 3.94 µM and a Kd [6, 25] of 0.0581 µM.
With NEYRQYLDA the Kd [1, 25] was 1.76 µM, the Kd [2, 25] was 10.9 µM and the Kd [3, 25] was 0.944 µM. The Kd [4, 25] was 0.0988 µM, the Kd [5, 25] was 2.38 µM and the Kd [6, 25] was 12.4 µM.
With LTDSDSPTY the Kd ([7]; source organism: Mycobacterium tuberculosis) was 0.025 µM and the Kd ([8]; source organism: Mycobacterium tuberculosis str. Haarlem) was 0.14 µM.
In the case of CRTAFKPVL, the Kd [9] is reported as ≥ 20 µM, the Kd [10] is reported as ≥ 20 µM and the Kd [11] is reported as ≥ 20 µM. For the same sequence, the Kd [7, 26] was ≥ 20 µM, the Kd [12] was ≥ 20 µM and the Kd [13] was ≥ 20 µM. For the same sequence, the Kd [14] was ≥ 20 µM, the Kd [8, 26] was ≥ 20 µM and the Kd [15] was ≥ 20 µM. The Kd [16] was ≥ 20 µM, the Kd [17] was ≥ 20 µM and the Kd [18] was ≥ 20 µM. The Kd [19] was ≥ 20 µM, the Kd [20] was ≥ 20 µM and the Kd [21] was ≥ 20 µM.
AESHMDADLA showed a Kd [1, 25] of 0.163 µM, a Kd [2, 25] of 1.12 µM and a Kd [3, 25] of 0.0631 µM. For the same sequence, the Kd [4, 25] was 0.00831 µM, the Kd [5, 25] was ≥ 48 µM and the Kd [6, 25] was 1.33 µM.
Sequence KQRCALPSL has a Kd [22] of 0.246 µM and a Kd [23] of 0.796 µM.
Work on GEVLSLDKL yielded a Kd [1, 25] of 0.0109 µM, a Kd [2, 25] of 2.33 µM and a Kd [3, 25] of 0.0307 µM. For the same sequence, the Kd [4, 25] was 17.3 µM, the Kd [5, 25] was ≥ 77.5 µM and the Kd [6, 25] was 7.88 µM.
In the case of LEGYAFEHIV, the Kd [1, 25] is reported as 17.4 µM, the Kd [2, 25] is reported as ≥ 28.4 µM and the Kd [3, 25] is reported as 1.79 µM. For the same sequence, the Kd [4, 25] was 0.316 µM, the Kd [5, 25] was 1.12 µM and the Kd [6, 25] was ≥ 51.7 µM.
In the case of PDFNELFQL, the Kd [1, 27] is reported as ≥ 23.6 µM, the Kd [2, 27] is reported as ≥ 22.9 µM and the Kd [3, 27] is reported as 1.68 µM. The Kd [4, 27] was ≥ 77.7 µM, the Kd [5, 27] was ≥ 77.5 µM and the Kd [6, 27] was ≥ 29 µM.
With KDPLITSGC the Kd [1, 28] was 17.3 µM, the Kd [2, 28] was ≥ 78.1 µM and the Kd [3, 28] was 4.5 µM. For the same sequence, the Kd [4, 28] was ≥ 77.1 µM, the Kd [5, 28] was ≥ 77.5 µM and the Kd [6, 28] was ≥ 77.9 µM.
Work on PEIWLQLNTL yielded a Kd [1, 24] of 4.45 µM, a Kd [2, 24] of 8.12 µM and a Kd [3, 24] of 0.109 µM. The Kd [4, 24] was 12.2 µM, the Kd [5, 24] was 19.7 µM and the Kd [6, 24] was 10.2 µM.
